Measured values: US20250289871A1

Key:
Test in all cases: cell-based or functional assay
[1] = target: SARS-CoV-2 Alpha spike protein (authentic virus) (SARS-CoV-2) (UniProt P0DTC2)
[2] = target: SARS-CoV-2 BA.1 spike protein (authentic virus) (SARS-CoV-2) (UniProt P0DTC2)
[3] = target: SARS-CoV-2 BA.1.1 spike protein (authentic virus) (SARS-CoV-2) (UniProt P0DTC2)
[4] = target: SARS-CoV-2 BA.2 spike protein (authentic virus) (SARS-CoV-2) (UniProt P0DTC2)
[5] = target: SARS-CoV-2 BA.2.12.1 spike protein (authentic virus) (SARS-CoV-2) (UniProt P0DTC2)
[6] = target: SARS-CoV-2 BA.5 spike protein (authentic virus) (SARS-CoV-2) (UniProt P0DTC2)

cilgavimab (AZD1061) (antibody)
Authentic Virus Neutralization IC50 [1]: 0.006 µg/mL
Authentic Virus Neutralization IC50 [2]: 3.78 µg/mL
Authentic Virus Neutralization IC50 [3]: > 10 µg/mL
Authentic Virus Neutralization IC50 [4]: 0.021 µg/mL
Authentic Virus Neutralization IC50 [5]: 0.029 µg/mL
Authentic Virus Neutralization IC50 [6]: 0.131 µg/mL
